From the DeepSol protein solubility set come the findings set out here.

This series is described as follows: soluble on expression in E. coli; label from the status in PepcDB or PDB records.
“MAHHHHHHMSFVVIRLLEVLPTQVRTQLTANAEYVVSVSSAQRLSTFCSQGPYAATRLQLSDFDGAARLWEPQWNVVEALPATKEVHDVSRVCAVYRGNSGVTAFAFIDEHGTVLATTRWVDCALSTVSGRERAVLQAAQLRKLFTQCRPTVMAIGASSIACLPLLRTLETFLREQVHQSAVVDVPVVWASVEVPRYYSVTTYARLELPQTENIVVTSVALARYVQDPLQVLCSLFEGEQTALQLCRTIRISASHDRQLYQASGVGDEPVGGGGGPVGRRYCVPPQHCRDAAVCSRPRPRQSACVGQCHPSLRRSAKSTASGAASGTLRGRHRAERRAGAARSLAGAMRRGAPVAPSRCNADPVAVVRDRLFGGKGDCLLIDAAGRSVASRAAWNGAGGAPGCTLPRRRAFYGCQGQGECGGPGRRGSS”: the “soluble on expression in E. coli” value is recorded as “not soluble”. To “GSQEVRRGDFVRNWQLVAAVPLFQKLGPAVLVEIVRALRARTVPAGAVICRIGEPGDRMFFVVEGSVSVATPNPVELGPGAFFGEMALISGEPRSATVSAATTVSLLSLHSADFQMLCSSSPEIAEIFRKTALERRGAAASA” belongs “soluble”; to “MASSSLVRIAVVGDIHGFWNLDEDRKALRVLQERKTKTKRCSNATRYMDFPSFKLSIVGGRPFSHGGDRLFRKNLLVQRYGVHDMEASAGSICRAAHGTPEDHVAIILAHNGPTGLGWQAEDICGKDWGAEGGDHGDPDLEQAIRQLKETTKLSIPLVVFGHMHKELQRGKGNRKMVVQDSDNQTVYVNGAIVPRVKEAKKRGAAESESGGTTRAFTLVEILDGKIKKIAEIWVHVNGSMAKIVEENTLFEDVT”, “soluble”.

As to “MGSDKIHHHHHHMTYQAREAGLKEVEQLVHEQAVYQYLQENNEGGQMDKDQMLFLHEAISGSDLTDAAAYRVVSATLYMILAHDTHEKIDEPGDVVKLTRKEQELTVLAGDFYSALYYRTLAELEMIPLLRALQSGVQETNTAKTNIYQLHVATDEEYLSQLTLTNAAIFAKFAKYFMKDETFIALGCQFFLLKRLQTELATYKEIGASRLKRAFDHGYFAKEAVSNFESWLVAIIRDVKSEVERLKTEAEPLSNLLEKRIIEVIND”, the “soluble on expression in E. coli” value is on record as “not soluble”. To “MTAISCSPRPRYASRMPVLSKTVEVTADAASIMAIVADIERYPEWNEGVKGAWVLARYDDGRPSQVRLDTAVQGIEGTYIHAVYYPGENQIQTVMQQGELFAKQEQLFSVVATGAASLLTVDMDVQVTMPVPEPMVKMLLNNVLEHLAENLKQRAEQLAAS” belongs “soluble”.

On to “VDLEKFKFHARIDDDFEDSYIQLLLDAAINYVSKITGVPNDENAPPEYDLAIMILALHWYTNREVLSDRGTNQVPYGLGMLIANLRTN”, for which the “soluble on expression in E. coli” value is listed as “not soluble”. With “MGSDKIHHHHHHMDPRSEVLLRQAELFQGPLLIAGAPADDLLGQLPQAQAWTWHAGDQAMLESRFAGRSHYGVEAPEAAFDSAVLFLPKSRELAAYLLNALASRLAGRELYLVGEKRGGIEGAAKQLQAFGKPRKLDSARHCQLWQVTIDQAPQAKPLESLAERFELALEDGPLQVVSLPGVFSHGRLDRGTALLLKHLDGLPGGHMLDFGCGAGVLGATLKRRYPQSRVTLLDVDAFAVAASRLTLAANGLEGEVISGDGIDAAPTELSLILSNPPFHTGVHTNYQASENLLKKSAVHLRKGGEMRLVANSFLRYQPLIEGALGNCQVRDEADGFRIYQATRG”, the “soluble on expression in E. coli” value is “not soluble”. “MEHLRRFDRVAGAVTQAMREGRIGFSLQQVNAVDDTGEVLYSECLGRLVERDGAVRTSEEFTAFLEASGRVASFDRYMVGLAFEWLDCNPSGVLGCDISAGNIFDENTWSELYDLLSRNREMASRLVLEITECLPLATLPTAAEFIEGARALGYRIALDSFGTGHSTPESLLSVPVDIVKLDAFFIGRGQGVGKGKGFLHHLVGLASCVAPTVIIEGIETYGQLEAVKKAGATHVQGFLLSEPTLYPVYCGQPAPLPAAKPRSAGSRQLHS”: the “soluble on expression in E. coli” value is listed as “not soluble”. To “ESSFTYTLDEKVAELVEFLLLKYEAEEPVTEAEMLMIVIKYKDYFPVILKRAREFMELLFGLALIEVGPDHFCVFANTVGLTDEGSDDEGMPENSLLIIILSVIFIKGNCASEEVIWEVLNAVGVYAGREHFVYGEPRELLTKVWVQGHYLEYREVPHSSPPYYEFLWGPRAHSESIKKKVLEFLAKLNNTVPSSFPSWYKDALKDVEERVQATIDTADD” belongs “soluble”.
